Measured values published in the supplement of paper PMC9112550, “Optimization of the antimicrobial peptide Bac7 by deep mutational scanning” (BMC Biology, 2022).

The sequences below were run on Escherichia coli TOP10 (assay: shrunken log2 fold change of peptide-encoding DNA abundance (4.5 h post-induction vs induction); higher = less antimicrobial activity (less host growth inhibition)). Settings: time post-induction: 4.5 h; library: site-saturation at positions 5, 18, 19, 20.
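Further: peptides expressed intracellularly from a pBAD plasmid library in pooled LB shake-flask culture, induced with 0.3% L-arabinose, DNA abundance read by NGS, three biological replicates, DESeq2 with apeglm shrinkage.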

Row | Sequence | shrunken log2 fold change
1 | RRIRQRPPRLPRPRPRPCQWPRP | -0.205
2 | RRIRARPPRLPRPRPRPNGGPRP | -0.01
3 | RRIRVRPPRLPRPRPRPNAWPRP | 0.0914
4 | RRIRERPPRLPRPRPRPDGIPRP | -0.00168
5 | RRIRKRPPRLPRPRPRPTSLPRP | -0.00423
6 | RRIRARPPRLPRPRPRPKDWPRP | 0.578
7 | RRIRGRPPRLPRPRPRPRTDPRP | 1.06
8 | RRIRMRPPRLPRPRPRPASDPRP | 0.869
9 | RRIRYRPPRLPRPRPRPAWWPRP | 0.365
10 | RRIRQRPPRLPRPRPRPSNYPRP | -0.0943
11 | RRIRQRPPRLPRPRPRPPNCPRP | 0.0242
12 | RRIRWRPPRLPRPRPRPEANPRP | 1.14
13 | RRIRKRPPRLPRPRPRPKQPPRP | -0.0354
14 | RRIRHRPPRLPRPRPRPTITPRP | -0.384
15 | RRIRHRPPRLPRPRPRPYPVPRP | -0.00992
16 | RRIRLRPPRLPRPRPRPKRKPRP | -0.314
17 | RRIRKRPPRLPRPRPRPCETPRP | -0.0599
18 | RRIRRRPPRLPRPRPRPFWTPRP | 0.00443
19 | RRIRERPPRLPRPRPRPQCQPRP | 0.158
20 | RRIRERPPRLPRPRPRPIVIPRP | -0.233
21 | RRIRVRPPRLPRPRPRPMDSPRP | -0.134
22 | RRIRIRPPRLPRPRPRPAWPPRP | 0.339
23 | RRIRMRPPRLPRPRPRPSGQPRP | 0.602
24 | RRIRRRPPRLPRPRPRPTKLPRP | 0.111
25 | RRIRDRPPRLPRPRPRPHPGPRP | 0.163

Row | Sequence | shrunken log2 fold change
26 | RRIRFRPPRLPRPRPRPGHLPRP | -0.459
27 | RRIRKRPPRLPRPRPRPYFRPRP | 0.123
28 | RRIRPRPPRLPRPRPRPAIMPRP | -0.00756
29 | RRIRTRPPRLPRPRPRPKDDPRP | -0.124
30 | RRIRGRPPRLPRPRPRPGSDPRP | 1.06
31 | RRIRMRPPRLPRPRPRPFTWPRP | 0.0653
32 | RRIRTRPPRLPRPRPRPNNIPRP | -0.695
33 | RRIRDRPPRLPRPRPRPNNNPRP | -0.667
34 | RRIRSRPPRLPRPRPRPHYIPRP | -0.556
35 | RRIRYRPPRLPRPRPRPSLVPRP | -0.291
36 | RRIRQRPPRLPRPRPRPTIQPRP | 0.0369
37 | RRIRGRPPRLPRPRPRPMPLPRP | 0.606
38 | RRIRNRPPRLPRPRPRPLVPPRP | -0.213
39 | RRIRLRPPRLPRPRPRPVPTPRP | 0.0616
40 | RRIRNRPPRLPRPRPRPPYVPRP | -0.0374
41 | RRIRHRPPRLPRPRPRPITCPRP | -0.0107
42 | RRIRYRPPRLPRPRPRPVNQPRP | -0.058
43 | RRIRHRPPRLPRPRPRPQHKPRP | -0.494
44 | RRIRQRPPRLPRPRPRPQCNPRP | -0.0983
45 | RRIRSRPPRLPRPRPRPDFHPRP | -0.751
46 | RRIRPRPPRLPRPRPRPTLGPRP | 0.564
47 | RRIRYRPPRLPRPRPRPFTLPRP | -0.019
48 | RRIRPRPPRLPRPRPRPEYYPRP | -0.335
49 | RRIRDRPPRLPRPRPRPYQIPRP | -0.238
50 | RRIRGRPPRLPRPRPRPNKKPRP | 0.0152

Row | Sequence | shrunken log2 fold change
51 | RRIRLRPPRLPRPRPRPHELPRP | 0.245
52 | RRIRSRPPRLPRPRPRPPFIPRP | -0.252
53 | RRIRPRPPRLPRPRPRPYALPRP | -1.08
54 | RRIRDRPPRLPRPRPRPHKFPRP | -0.122
55 | RRIRNRPPRLPRPRPRPFKGPRP | -0.0902
56 | RRIRDRPPRLPRPRPRPIPTPRP | 0.00396
57 | RRIRERPPRLPRPRPRPGTDPRP | 8.37e-05
58 | RRIRKRPPRLPRPRPRPSQYPRP | -0.21
59 | RRIRRRPPRLPRPRPRPVCCPRP | 0.158
60 | RRIRRRPPRLPRPRPRPECCPRP | 0.566
61 | RRIRSRPPRLPRPRPRPWSIPRP | 0.0338
62 | RRIRARPPRLPRPRPRPHNHPRP | -0.436
63 | RRIRTRPPRLPRPRPRPLDVPRP | -0.594
64 | RRIRERPPRLPRPRPRPRTVPRP | 0.0995
65 | RRIRGRPPRLPRPRPRPHKGPRP | -0.136
66 | RRIRKRPPRLPRPRPRPPKDPRP | 0.498
67 | RRIRTRPPRLPRPRPRPKSEPRP | -0.144
68 | RRIRLRPPRLPRPRPRPGWGPRP | 0.335
69 | RRIRPRPPRLPRPRPRPWHLPRP | -0.233
70 | RRIRLRPPRLPRPRPRPTPVPRP | 0.559
71 | RRIRARPPRLPRPRPRPKSYPRP | -0.145
72 | RRIRFRPPRLPRPRPRPPWDPRP | 0.195
73 | RRIRCRPPRLPRPRPRPQERPRP | -0.028
74 | RRIRNRPPRLPRPRPRPIWAPRP | 0.0814
75 | RRIRRRPPRLPRPRPRPYYAPRP | -0.561

Row | Sequence | shrunken log2 fold change
76 | RRIRYRPPRLPRPRPRPHAKPRP | -0.0339
77 | RRIRNRPPRLPRPRPRPILHPRP | -0.684
78 | RRIRLRPPRLPRPRPRPDVCPRP | 0.0271
79 | RRIRQRPPRLPRPRPRPQVSPRP | 0.301
80 | RRIRSRPPRLPRPRPRPQKFPRP | -0.14
81 | RRIRTRPPRLPRPRPRPDIAPRP | -0.0105
82 | RRIRYRPPRLPRPRPRPRYKPRP | -0.451
83 | RRIRERPPRLPRPRPRPSMIPRP | -0.171
84 | RRIRNRPPRLPRPRPRPAWIPRP | 0.275
85 | RRIRKRPPRLPRPRPRPKKIPRP | 0.431
86 | RRIRKRPPRLPRPRPRPYKYPRP | -0.00882
87 | RRIRYRPPRLPRPRPRPTPHPRP | -0.181
88 | RRIRCRPPRLPRPRPRPRFGPRP | 0.316
89 | RRIRQRPPRLPRPRPRPLMPPRP | -0.0453
90 | RRIRDRPPRLPRPRPRPMTAPRP | -0.0214
91 | RRIRHRPPRLPRPRPRPDDTPRP | -0.00674
92 | RRIRVRPPRLPRPRPRPTPTPRP | 0.349
93 | RRIRIRPPRLPRPRPRPDQDPRP | -0.162
94 | RRIRSRPPRLPRPRPRPMVWPRP | 0.0214
95 | RRIRKRPPRLPRPRPRPQTTPRP | 0.289
96 | RRIRTRPPRLPRPRPRPMSYPRP | 0.0494
97 | RRIRERPPRLPRPRPRPLSFPRP | 0.329
98 | RRIRQRPPRLPRPRPRPSMPPRP | -0.0542
99 | RRIRTRPPRLPRPRPRPMLIPRP | 0.0601
100 | RRIRYRPPRLPRPRPRPAEDPRP | -0.176

Row | Sequence | shrunken log2 fold change
101 | RRIRRRPPRLPRPRPRPNTHPRP | -0.126
102 | RRIRGRPPRLPRPRPRPPTWPRP | 0.466
103 | RRIRMRPPRLPRPRPRPHGTPRP | 0.148
104 | RRIRMRPPRLPRPRPRPHTWPRP | -0.0904
105 | RRIRPRPPRLPRPRPRPNAYPRP | -0.0709
106 | RRIRWRPPRLPRPRPRPLDAPRP | 0.354
107 | RRIRHRPPRLPRPRPRPGRNPRP | -0.31
108 | RRIRHRPPRLPRPRPRPSTPPRP | -0.225
109 | RRIRCRPPRLPRPRPRPCCQPRP | -0.342
110 | RRIRSRPPRLPRPRPRPFGGPRP | -0.0941
111 | RRIRRRPPRLPRPRPRPAFAPRP | 0.456
112 | RRIRIRPPRLPRPRPRPYMEPRP | -0.677
113 | RRIRPRPPRLPRPRPRPGCDPRP | 0.309
114 | RRIRKRPPRLPRPRPRPYDHPRP | -0.084
115 | RRIRQRPPRLPRPRPRPCKVPRP | -0.101
116 | RRIRGRPPRLPRPRPRPTLHPRP | 0.896
117 | RRIRERPPRLPRPRPRPYMIPRP | -0.259
118 | RRIRLRPPRLPRPRPRPQNGPRP | -0.146
119 | RRIRSRPPRLPRPRPRPHVTPRP | -0.232
120 | RRIRRRPPRLPRPRPRPFMKPRP | -0.213
121 | RRIRGRPPRLPRPRPRPWPPPRP | 0.663
122 | RRIRLRPPRLPRPRPRPGCDPRP | 0.261
123 | RRIRFRPPRLPRPRPRPDVSPRP | 0.0432
124 | RRIRWRPPRLPRPRPRPMLFPRP | -0.00681
125 | RRIRERPPRLPRPRPRPCVVPRP | 0.0441

Row | Sequence | shrunken log2 fold change
126 | RRIRLRPPRLPRPRPRPGAAPRP | 0.543
127 | RRIRMRPPRLPRPRPRPNEMPRP | 0.318
128 | RRIRRRPPRLPRPRPRPMQHPRP | 0.566
129 | RRIRPRPPRLPRPRPRPSWHPRP | 0.182
130 | RRIRIRPPRLPRPRPRPRWQPRP | 0.128
131 | RRIRCRPPRLPRPRPRPPYCPRP | -0.365
132 | RRIRLRPPRLPRPRPRPVPDPRP | 0.00559
133 | RRIRERPPRLPRPRPRPHEMPRP | -0.039
134 | RRIRMRPPRLPRPRPRPAWHPRP | 0.726
135 | RRIRSRPPRLPRPRPRPWHYPRP | -0.162
136 | RRIRWRPPRLPRPRPRPVWDPRP | 0.177
137 | RRIRHRPPRLPRPRPRPQWDPRP | -0.0406
138 | RRIRWRPPRLPRPRPRPKAHPRP | 0.197
139 | RRIRLRPPRLPRPRPRPKFLPRP | -0.173
140 | RRIRGRPPRLPRPRPRPSYNPRP | 0.0742
141 | RRIRVRPPRLPRPRPRPDYRPRP | -0.00433
142 | RRIRTRPPRLPRPRPRPNWDPRP | 0.00303
143 | RRIRKRPPRLPRPRPRPYNGPRP | -0.00151
144 | RRIRCRPPRLPRPRPRPPRYPRP | 0.753
145 | RRIRMRPPRLPRPRPRPEGDPRP | 4.15
146 | RRIRTRPPRLPRPRPRPQANPRP | -0.156
147 | RRIRDRPPRLPRPRPRPCCQPRP | -0.0183
148 | RRIRDRPPRLPRPRPRPWTDPRP | 0.023
149 | RRIRGRPPRLPRPRPRPSKPPRP | 0.218
150 | RRIRGRPPRLPRPRPRPRQAPRP | 0.93
